Experimental data reported in paper PMC4249980.

Biological target: recombinant GST-BNIP3 protein (rat BNIP3) (rat)
Assay: SDS-PAGE and Western blot; GST-BNIP3 incubated with isolated rat liver mitochondria for 1 hour at 37°C in calcium-free buffer; mitochondrial and supernatant fractions blotted with a BNIP3 antibody; 90 kD band

stoichiometry N: 2
Substance: recombinant GST-BNIP3 protein (rat BNIP3) (natural protein)
